Target: human CD44v6 (CD44 splice variant containing the domain v6) on antigen-positive FaDu cells (human) (UniProt P16070)
Test: flow cytometry (FACS) on FaDu cells, FITC-labeled anti-human IgG detection, on ice

UniProt P16070, sequence (P16070 21-742, change not shown): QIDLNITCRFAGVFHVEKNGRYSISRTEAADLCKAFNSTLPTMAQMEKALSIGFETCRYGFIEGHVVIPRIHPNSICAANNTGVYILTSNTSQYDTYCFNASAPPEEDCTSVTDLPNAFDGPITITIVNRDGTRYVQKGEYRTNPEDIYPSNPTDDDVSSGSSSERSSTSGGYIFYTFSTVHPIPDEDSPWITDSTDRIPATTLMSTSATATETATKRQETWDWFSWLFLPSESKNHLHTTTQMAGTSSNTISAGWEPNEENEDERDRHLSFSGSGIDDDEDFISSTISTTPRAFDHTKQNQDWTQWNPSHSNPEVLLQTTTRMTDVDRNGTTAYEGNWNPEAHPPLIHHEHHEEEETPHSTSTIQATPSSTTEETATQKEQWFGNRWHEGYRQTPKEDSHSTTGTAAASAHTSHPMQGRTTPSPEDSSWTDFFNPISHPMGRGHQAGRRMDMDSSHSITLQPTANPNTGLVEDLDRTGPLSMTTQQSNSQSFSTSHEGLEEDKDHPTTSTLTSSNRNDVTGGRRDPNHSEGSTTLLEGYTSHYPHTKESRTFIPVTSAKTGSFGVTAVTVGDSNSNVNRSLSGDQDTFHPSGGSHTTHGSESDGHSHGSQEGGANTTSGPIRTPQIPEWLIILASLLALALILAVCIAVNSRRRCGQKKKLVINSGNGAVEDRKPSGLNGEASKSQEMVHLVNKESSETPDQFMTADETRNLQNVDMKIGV

B1: BIWA 4 (antibody, human IgG1, kappa, V domains shown)
VH: EVQLVESGGGLVKPGGSLRLSCAASGFTFSSYDMSWVRQAPGKGLEWVSTISSGGSYTYYLDSIKGRFTISRDNAKNSLYLQMNSLRAEDTAVYYCARQGLDYWGRGTLVTVSS
VL: EIVLTQSPATLSLSPGERATLSCSASSSINYIYWYQQKPGQAPRLLIYLTSNLASGVPARFSGSGSGTDFTLTISSLEPEDFAVYYCLQWSSNPLTFGGGTKVEIKR
- Kd: 1 nM

B2: BIWI 1 (antibody, human IgG1, kappa, V domains shown)
VH: EVQLVESGGGLVKPGGSLRLSCAASGFTFSSYDMSWVRQAPGKGLEWVSTISSGGSYTYYLDSIKGRFTISRDNAKNSLYLQMNSLRAEDTAVYYCARQGLDYWGRGTLVTVSS
VL: EIVLTQSPATLSLSPGERATLSCSASSSINYIYWYQQKPGQAPRLLIYLTSNLASGVPARFSGSGSGTDFTLTISSLEPEDFAVYYCLQWSSNPLTFGGGTKVEIKR
modifications: maytansinoid DM1 linked by a disulfide bond through the SPP-derived thiopentanoate linker; DM1/MAb ratio 3.1 (average for the whole antibody); attachment residues not stated
- Kd: 1.8 nM

Reference: patent EP1391213A1
